In US7553821B2, “Methods for selectively modulating survivin apoptosis pathways” (Yale University, priority 2000, dated 2009):
Residues, ends and D or L forms follow the SMILES beside them. *: point of attachment. Cbz = O=C(OCc1ccccc1)*; CH2F = FC*

Experiments:
HeLa cells [1] = assay: DNA content by propidium iodide staining and flow cytometry in transfected HeLa cells; format: cell-based; conditions: inhibitor 20 μM, 48 h
Experimental: HeLa cells were transfected with GFP-survivin(T34A) in the presence or in the absence of 20 μM of the caspase inhibitor, Z-VAD-fmk. Gated GFP-expressing cells were analyzed 48 h after transfection for DNA content by propidium iodide staining and flow cytometry. The percentages of apoptotic cells with sub-G1 (hypodiploid) […] DNA content are indicated. Apoptotic HeLa cells in GFP-vector transfectants were 8%. Data are representative of one experiment out of at least three independent determinations.
Transfection experiments. For transient transfection, HeLa cells in C-6 tissue culture plates (Costar, Cambridge, Mass.) at ˜60-70% confluency, were incubated in 1 ml of serum-free OptiMEM medium (Life Technologies, Gaithersburg, Md.) for 20 min, and transfected with 2.5 μg of the various plasmid cDNAs plus 9 μl Lipofectamine (Life Technologies). After a 5 h incubation at 37° C., the mixture was aspirated and substituted with complete growth medium for 48-72 h. To generate stable YUSAC-2 transfectants, a survivin(T34A) cDNA was inserted into the HindIII-SpeI sites of the pTet-splice vector (Dr. D. Schatz, Yale University School of Medicine), downstream of the regulatory sequences of the Tet-resistance operon (TetO). […] Gated GFP-expressing cells were analyzed for DNA content by flow cytometry on a FACSort (Becton Dickinson, San Jose, Calif.) using a Cell Quest software. […]

HeLa cells [2] = assay: Nuclear morphology of apoptosis (DAPI) in transfected HeLa cells; format: cell-based; conditions: for HeLa cell apoptosis induced by survivin(T34A), effect of co-transfected dominant negative caspase: co-transfection
Description: HeLa cells transfected with GFP-vector (vector), GFP-survivin(T34A) (T34A), or GFP-caspase-9 (Met^1-Asp^330) (caspase-9), were scored morphologically for nuclear integrity by DAPI staining after 48-h. Arrows, nuclear fragmentation and chromatin condensation in GFP-expressing cells.
The experimental procedures are the same as in A. Data are the meaνSEM of four independent experiments.
HeLa cells were transfected with the various indicated combinations of GFP-constructs, with or without etoposide (10 μg/ml) or TNFα (10 ng/ml) plus cycloheximide (10 μg/ml), harvested after 48 h, and GFP-labeled cells were morphologically scored for nuclear fragmentation by DAPI staining, as described in FIG. 2B. DN, dominant negative. Data are the mea±SEM of four independent experiments.
Transfection experiments. For transient transfection, HeLa cells in C-6 tissue culture plates (Costar, Cambridge, Mass.) at ˜60-70% confluency, were incubated in 1 ml of serum-free OptiMEM medium (Life Technologies, Gaithersburg, Md.) for 20 min, and transfected with 2.5 μg of the various plasmid cDNAs plus 9 μl Lipofectamine (Life Technologies). After a 5 h incubation at 37° C., the mixture was aspirated and substituted with complete growth medium for 48-72 h. To generate stable YUSAC-2 transfectants, a survivin(T34A) cDNA was inserted into the HindIII-SpeI sites of the pTet-splice vector (Dr. D. Schatz, Yale University School of Medicine), downstream of the regulatory sequences of the Tet-resistance operon (TetO). YUSAC-2 cells were transfected with 0.8 μg pTet-T34A, 0.8 μg of the transactivation/selection plasmid ptTA-Neo and 5 μl Lipofectamine in 1 ml of OptiMem. Forty-eight h after transfection, cells were re-plated at low density in 15×150 mm plates in growth medium containing 1.5 mg/ml Geneticin (G418, Life Technologies), 2 mM sodium hydroxide and 0.5 μg/ml Tet (Sigma, St. Louis, Mo.) (selection medium). After a 3-week culture, ninety-six individual clones were screened for differential growth in the presence or absence of Tet. […] Flow cytometry. HeLa cells transfected with the various GFP constructs in the presence or in the absence of the broad-spectrum caspase inhibitor Z-VAD-fmk (20 μM) were harvested after 48-h (non-adherent and adherent cells), washed in PBS, pH 7.0, and fixed in cold 70% ethanol for 30 min on ice. After washes in PBS, cells (10×10^6/ml) were stained with 25 μg/ml propidium iodide (Sigma), 0.05% Triton X-100 and 100 μg/ml RNAse A (Boehringer Mannheim, Indianapolis, Ind.) for 45 min at 22° C. Gated GFP-expressing cells were analyzed for DNA content by flow cytometry on a FACSort (Becton Dickinson, San Jose, Calif.) using a Cell Quest software. In other experiments, F5-C4 cells were synchronized at the G1/S boundary by culture with 5-mM thymidine for 16 h at 37° C., in the presence or in the absence of Tet. At the end of the incubation, cells were released from the thymidine block, and harvested at 3-h intervals for DNA content analysis by propidium iodide staining and flow cytometry, or, alternatively, for caspase-9 processing by Western blotting (see below). TUNEL staining. Internucleosomal DNA fragmentation of F5.C4 cells in the presence or in the absence of Tet was carried out by end-labeling with terminal deoxynucleotidyl transferase (TdT) and peroxidase-conjugated anti-digoxigenin antibody using the ApopTag kit (Intergen, Purchase, N.Y.), as described previously (Grossman et al., 1999). Immunoprecipitation and Western blotting. Asynchronously growing or synchronized HeLa cells were lysed in 200 μl of lysis buffer containing 50 mM Tris, pH 7.5, 1% NP-40, 0.25% DOC, 150 mM NaCl, 1 mM PMSF, 10 μg/ml aprotinin, 10 μg/ml leupeptin, 10 μg/ml pepstatin, 1 mM Na3VO4, 20 mM NaF, 0.2 mM EGTA, 1 mM EDTA, pH 8.0, for 30 min at 4° C. Insoluble material was removed by centrifugation at 14,000 rpm for 15 min, and two-hundred μg of protein lysate was pre-absorbed with 25 μl of a 50:50 Protein A Sepharose slurry (Pharmacia) for 3 h at 4° C. with constant agitation. […]

In the case of COC(=O)C[C@H](NC(=O)[C@H](C)NC(=O)[C@@H](NC(=O)OCc1ccccc1)C(C)C)C(=O)CF [Z-VAD-fmk, reference compound] (Cbz-Val-Ala-Asp(OMe)-CH2F), the “effect on sub-G1 DNA content induced by GFP-survivin(T34A)” value (HeLa cells [1]) is reported as “reversed”.

With “Leu^64ÕAla: another survivin point mutant in the Baculovirus IAP repeat (BIR), control [reference compound]” the “ability to induce spontaneous apoptosis upon transient transfection” value (HeLa cells [2]; survivin BIR domain mutants) was “did not cause apoptosis”.

B1: caspase-9(C287A): caspase 9 dominant negative mutant (Cys287→Ala) (protein, UniProt P55211 1-416, looked up, variant C287A)
chain: MDEADRRLLRRCRLRLVEELQVDQLWDALLSRELFRPHMIEDIQRAGSGSRRDQARQLIIDLETRGSQALPLFISCLEDTGQDMLASFLRTNRQAAKLSKPTLENLTPVVLRPEIRKPEVLRPETPRPVDIGSGGFGDVGALESLRGNADLAYILSMEPCGHCLIINNVNFCRESGLRTRTGSNIDCEKLRRRFSSLHFMVEVKGDLTAKKMVLALLELAQQDHGALDCCVVVILSHGCQASHLQFPGAVYGTDGCPVSVEKIVNIFNGTSCPSLGGKPKLFFIQAAGGEQKDHGFEVASTSPEDESPGSNPEPDATPFQEGLRTFDQLDAISSLPTPSDIFVSYSTFPGFVSWRDPKSGSWYVETLDDIFEQWAHSEDLQSLLLRVANAVSVKGIYKQMPGCFNFLRKKLFFKTS
With B1 the “HeLa cell apoptosis induced by survivin(T34A), effect of co-transfected dominant negative caspase” value (HeLa cells [2]; 48 h) was “reversed HeLa cell apoptosis induced by survivin(T34A) to background levels” and the “nuclear fragmentation and chromatin condensation induced by etoposide” value (HeLa cells [2]; etoposide 10 μg/ml, 48 h) was “inhibited”.

B2: caspase-8(C360S): caspase-8 dominant negative mutant obtained from Dr. V. Dixit (protein, UniProt Q14790 1-479, looked up, variant C360S)
chain: MDFSRNLYDIGEQLDSEDLASLKFLSLDYIPQRKQEPIKDALMLFQRLQEKRMLEESNLSFLKELLFRINRLDLLITYLNTRKEEMERELQTPGRAQISAYRVMLYQISEEVSRSELRSFKFLLQEEISKCKLDDDMNLLDIFIEMEKRVILGEGKLDILKRVCAQINKSLLKIINDYEEFSKERSSSLEGSPDEFSNGEELCGVMTISDSPREQDSESQTLDKVYQMKSKPRGYCLIINNHNFAKAREKVPKLHSIRDRNGTHLDAGALTTTFEELHFEIKPHDDCTVEQIYEILKIYQLMDHSNMDCFICCILSHGDKGIIYGTDGQEAPIYELTSQFTGLKCPSLAGKPKVFFIQASQGDNYQKGIPVETDSEEQPYLEMDLSSPQTRYIPDEADFLLGMATVNNCVSYRNPAEGTWYIQSLCQSLRERCPRGDDILTILTEVNYEVSNKDDKKNMGKQMPQPTFTLRKKLVFPSD
For B2, the “cell death induced by TNFα/cycloheximide” value (HeLa cells [2]; TNFα 10 ng/ml plus cycloheximide 10 μg/ml, 48 h) was “completely inhibited” and the “HeLa cell apoptosis induced by survivin(T34A), effect of co-transfected dominant negative caspase” value (HeLa cells [2]; 48 h) was “did not reduce apoptosis”.
